The values below come from the supplement of paper PMC10567573.

B1: SNX8 (parent)
chain: RMVPALPPKRMLGADREFIEARRR
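Note: lentivirally expressed fusions sorted by FACS into six bins by GFP to DsRed ratio, PSI derived from sequencing read proportions per bin multiplied by bin number.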

The variants in the series derive from B1. Nature of the series: protein stability index of a GFP-peptide fusion (GPS, HEK-293T) (PSI 1-6); higher = more stable. Conditions: c terminus: a fixed tail appended.
Consider RMVPALPPKRMLGADRMFIEARRR [E17M], for which the protein stability index worked out at 2.38.
With RMVPALPPKRMLGADRQFIEARRR [E17Q] the figure was 3.34.
For RMVPALPPKRMLGADRCFIEARRR [E17C], the protein stability index worked out at 3.61.
For the variant RMVPALPPKRMLGADRLFIEARRR [E17L], the protein stability index was 3.37.
RMVPALPPKRMLGADRHFIEARRR [E17H]: the protein stability index came out at 3.45.
Turning to RMVPALPPKRMYGADREFIEARRR [L12Y], the protein stability index worked out at 3.73.
In the case of RMVPALPPKRMIGADREFIEARRR [L12I], the protein stability index is 4.08.
In the case of RMVPALPPKRMEGADREFIEARRR [L12E], the protein stability index worked out at 5.11.
Turning to RMVPALPPKRMFGADREFIEARRR [L12F], the protein stability index stood at 4.12.
For the variant RMVPALPPKRMNGADREFIEARRR [L12N], the protein stability index came to 4.89.
With RMVPALPPKRMKGADREFIEARRR [L12K] the figure was 3.25; with RMVPALPPKRMMGADREFIEARRR [L12M], 3.95; with RMVPALPPKRMAGADREFIEARRR [L12A], 4.53.
With RMVPALPPKRMLGADREFIEAIRR [R22I] the figure was 2.74; with RMVPALPPKRMLGADREFIEAKRR [R22K], 4.09; with RMVPALPPKRMLGADREFIEASRR [R22S], 3.75.
Turning to RMVPALPPKRMLGADREFIEAHRR [R22H], the protein stability index came to 3.76.
Take RMVPALPPKRMLGADREFIEADRR [R22D]: the protein stability index came out at 4.53.
RMVPALPPKRMLGADREFIEAYRR [R22Y]: the protein stability index came to 3.43.
On to RMVPALPPKRMLGADREFIEAPRR [R22P], for which the protein stability index came to 3.79.
With RMVPALPPKRMLGADREFIEATRR [R22T] the figure was 3.75; with RMVPALPPKRMLGRDREFIEARRR [A14R], 3.73; with RMVPALPPKRMLGHDREFIEARRR [A14H], 3.71.
On to RMVPALPPKRMLGGDREFIEARRR [A14G], for which the protein stability index was 3.96.
On to RMVPALPPKRMLGNDREFIEARRR [A14N], for which the protein stability index was found to be 4.72.
For the variant RMVPALPPKRMLGFDREFIEARRR [A14F], the protein stability index was determined as 3.37.
In the case of RMVPALPPKRMLGWDREFIEARRR [A14W], the protein stability index was found to be 2.51.
For the variant RMVPALPPKRMLGKDREFIEARRR [A14K], the protein stability index came to 3.84.
Turning to RMRPALPPKRMLGADREFIEARRR [V3R], the protein stability index was 3.94.
For RMPPALPPKRMLGADREFIEARRR [V3P], the protein stability index worked out at 3.81.
As for RMWPALPPKRMLGADREFIEARRR [V3W], the protein stability index was found to be 1.7.
Regarding RMNPALPPKRMLGADREFIEARRR [V3N], the protein stability index came to 4.08.
For RMYPALPPKRMLGADREFIEARRR [V3Y], the protein stability index was determined as 2.96.
Regarding RMKPALPPKRMLGADREFIEARRR [V3K], the protein stability index was determined as 4.11.
RMCPALPPKRMLGADREFIEARRR [V3C]: the protein stability index is 3.5.
Turning to RMGPALPPKRMLGADREFIEARRR [V3G], the protein stability index came out at 3.07.
On to RMVPALPPKRMLGADREIIEARRR [F18I], for which the protein stability index was 3.85.
With RMVPALPPKRMLGADREGIEARRR [F18G] the figure was 4.57; with RMVPALPPKRMLGADRESIEARRR [F18S], 4.38.
With RMVPALPPKRMLGADREDIEARRR [F18D] the figure was 4.08.
As for RMVPALPPKRMLGADREVIEARRR [F18V], the protein stability index is 4.12.
For the variant RMVPALPPKRMLGADREEIEARRR [F18E], the protein stability index worked out at 4.43.
With RMVPALPPKRMLGADREAIEARRR [F18A] the figure was 3.56; with RMVPALPPKRMLGADREHIEARRR [F18H], 4.18.
As to RMVPALPPKMMLGADREFIEARRR [R10M], the protein stability index amounted to 4.06.
With RMVPALPPKKMLGADREFIEARRR [R10K], the protein stability index is 3.81.
For RMVPALPPKHMLGADREFIEARRR [R10H], the protein stability index turned out to be 4.21.
With RMVPALPPKQMLGADREFIEARRR [R10Q] the figure was 4.39; with RMVPALPPKNMLGADREFIEARRR [R10N], 3.98; with RMVPALPPKIMLGADREFIEARRR [R10I], 3.94.
On to RMVPALPPKYMLGADREFIEARRR [R10Y], for which the protein stability index worked out at 3.71.
With RMVPALPPKRMLGADREFDEARRR [I19D] the figure was 4.41; with RMVPALPPKRMLGADREFPEARRR [I19P], 4.65.
With RMVPALPPKRMLGADREFTEARRR [I19T] the figure was 4.39; with RMVPALPPKRMLGADREFSEARRR [I19S], 3.43; with RMVPALPPKRMLGADREFYEARRR [I19Y], 3.98.
With RMVPALPPKRMLGADREFREARRR [I19R], the protein stability index worked out at 4.16.
As for RMVPALDPKRMLGADREFIEARRR [P7D], the protein stability index turned out to be 3.87.
With RMVPALYPKRMLGADREFIEARRR [P7Y] the figure was 3.49.
With RMVPALGPKRMLGADREFIEARRR [P7G] the figure was 4.01; with RMVPALVPKRMLGADREFIEARRR [P7V], 4.05; with RMVPALCPKRMLGADREFIEARRR [P7C], 2.91.
With RMVPALPPIRMLGADREFIEARRR [K9I], the protein stability index was determined as 4.17.
As for RMVPALPPCRMLGADREFIEARRR [K9C], the protein stability index stood at 2.95.
For RMVPALPPLRMLGADREFIEARRR [K9L], the protein stability index came to 4.01.
Consider RMVPALPPERMLGADREFIEARRR [K9E], for which the protein stability index was 4.12.
In the case of RMVPALPPVRMLGADREFIEARRR [K9V], the protein stability index was 4.61.
Turning to RMVPALPPNRMLGADREFIEARRR [K9N], the protein stability index is 4.26.
For the variant RMVPALPPRRMLGADREFIEARRR [K9R], the protein stability index turned out to be 2.99.
For RMVPALPPHRMLGADREFIEARRR [K9H], the protein stability index was determined as 4.53.
Regarding RMVPALPPSRMLGADREFIEARRR [K9S], the protein stability index came out at 4.35.
Consider RMVPALPFKRMLGADREFIEARRR [P8F], for which the protein stability index was found to be 3.18.
As to RMVPALPGKRMLGADREFIEARRR [P8G], the protein stability index turned out to be 3.53.
Take RMVPALPVKRMLGADREFIEARRR [P8V]: the protein stability index came to 3.44.
For RMVPALPWKRMLGADREFIEARRR [P8W], the protein stability index was 3.31.
Take RMVPALPYKRMLGADREFIEARRR [P8Y]: the protein stability index was determined as 3.88.
Turning to RMVPALPTKRMLGADREFIEARRR [P8T], the protein stability index is 3.31.
Regarding RMVPALPRKRMLGADREFIEARRR [P8R], the protein stability index stood at 3.88.
As for RMVPALPPKRMLGADREFIEARRT [R24T], the protein stability index worked out at 3.95.
With RMVPALPPKRMLGADREFIEARRW [R24W] the figure was 3.05; with RMVPALPPKRMLGADREFIEARRG [R24G], 3.94.
With RMVPALPPKRMLGADREFIEARRS [R24S], the protein stability index amounted to 3.46.
On to RMVPALPPKRMLGADREFIEARRK [R24K], for which the protein stability index amounted to 3.74.
On to RMVPALPPKRMLGADREFIEARRE [R24E], for which the protein stability index stood at 4.23.
As to RMVPALPPKRMLGADREFIEARRM [R24M], the protein stability index came to 2.96.
As for RMVPALPPKRMLGADREFIEARRL [R24L], the protein stability index stood at 2.92.
Consider RMVPALPPKRMLGADREFIEARRD [R24D], for which the protein stability index was found to be 4.
With RMVPALPPKRMLGADREFIEARRN [R24N] the figure was 3.66.
Take VMVPALPPKRMLGADREFIEARRR [R1V]: the protein stability index was found to be 3.18.
Turning to YMVPALPPKRMLGADREFIEARRR [R1Y], the protein stability index was found to be 1.81.
As to KMVPALPPKRMLGADREFIEARRR [R1K], the protein stability index came to 3.74.
For DMVPALPPKRMLGADREFIEARRR [R1D], the protein stability index stood at 2.87.
With GMVPALPPKRMLGADREFIEARRR [R1G] the figure was 3.77; with HMVPALPPKRMLGADREFIEARRR [R1H], 2.3.
